What was measured:
[1] = target: T1, human CD28 stalk region dimeric peptide (Homo sapiens, UniProt P10747); experiment: CD28 stalk region binding assay (ELISA), wild-type peptide; settings: serial dilution ELISA
T1 construct: purchased Genecust Europe (custom synthesis, stated for the tagged peptide); host or cells: synthetic peptide

[2] = target: T2, CD28 shedding in isolated human CD4 T cells (Homo sapiens, UniProt P10747); experiment: CD28 shedding in isolated CD4 T cells activated by PHA and IL2; type: cell-based; settings: 5 μg/mL PHA, 200 IU/mL IL-2; 0.4-50 μg/mL
T2 construct: endogenous in cells; host or cells: CD4 T cells and PBMCs from fresh blood of healthy donors

CD28 shedding in PBMC = target: T3, CD28 shedding in PBMC (Homo sapiens, UniProt P10747); experiment: CD28 shedding in PBMC activated by superantigen (SEB); type: cell-based; settings: 1 ng/mL SEB; 0.4-50 μg/mL
T3 construct: endogenous in cells; host or cells: CD4 T cells and PBMCs from fresh blood of healthy donors
Protocol: FIG. 9. […] Levels of soluble CD28 were measured in culture media of isolated PBMC stimulated with 1 ng/mL SEB (light grey bar). […] The levels of soluble human CD28 in the supernatant were quantified with standardized sandwich ELISA (R&D system).
Cellular assays evaluating anti shedding activity of VHH—For SEB activation of PBMCs, 0.1×10^6 PBMCs were stimulated with […] SEB (Sigma, Cat. No. S4881) for 5-7 days at 37° C. with/without the indicated concentrations of various treatments in 96 well plates. For PHA activated T cells, 0.1×10^6 CD4 T cells were incubated with the indicated concentration of Phytohemagglutinin (Sigma, Cat. No. L8902) and 200 IU/mL of IL-2 (Proleukine) for 5-7 days at 37° C. with/without the indicated concentrations of various treatments in 96 well plates. For HEK spontaneous CD28 shedding assay, 0.1×10^5 HEK cells were incubated for 48 hours at 37° C. with/without the indicated concentrations of various treatments in 96 well plates.

[3] = target: T4, CD28 shedding in HEK cells overexpressing human CD28 (Homo sapiens, UniProt P10747); experiment: HEK spontaneous CD28 shedding assay; type: cell-based; settings: 48 hr, 3.3-100 μg/mL
T4 construct: HEK293 cells overexpressing human full-length CD28 were analyzed; expressed in transfected cells

| Molecule | binding to human CD28 stalk region peptide (in words) [1] | inhibition of CD28 shedding, CD4 T cells activated by PHA and IL2 [2] | inhibition of CD28 shedding, PBMC activated by SEB (CD28 shedding in PBMC) | inhibition of CD28 shedding, HEK cells overexpressing human CD28 [3] |
| --- | --- | --- | --- | --- |
| 4A4: VHH clone binding the stalk region of human CD28, SEQ ID NO: 34 (protein) VHH: EVQLVESGGGLVQAGGSLRLSCAASGSLFSINAMAWYRQAPGKQRELVAAITSSGSTNYANSVKGRFTVSRDNAKNTMYLQMNSLKPEDTAVYYCVVDEYGSDYWIWGQGTQVTVSSAAAHHHHHH | bind specifically | inhibit CD28 shedding | inhibit CD28 shedding | inhibit CD28 shedding |
| 4A1: VHH clone binding the stalk region of human CD28, SEQ ID NO: 35 (protein) VHH: QVQLVESGGGLVQAGGSLRLSCAASGSIFSINAMGWYRQAPGKQRERVAAITSGGSTNYADSVKGRFTISRDNAKNTVYLQMNNLEPRDAGVYYCVVDLYGEDYWIWGQGTQVTVSSAAAHHHHHH | bind specifically |  |  |  |
